Measured values as given in patent US20260242839A1, “GLYCOSIDE PRODUCT BIOSYNTHESIS AND RECOVERY” (Manus Bio Inc., priority 2023, published 2026).

B1: SEQ ID NO: 84: UGT85C1 (Stevia rebaudiana) (protein, listed as Stevia rebaudiana)
chain: MDQMAKIDEKKPHVVFIPFPAQSHIKCMLKLARILHQKGLYITFINTDTNHERLVASGGTQWLENAPGFWFKTVPDGFGSAKDDGVKPTDALRELMDYLKTNFFDLFLDLVLKLEVPATCIICDGCMTFANTIRAAEKLNIPVILFWTMAACGFMAFYQAKVLKEKEIVPVKDETYLTNGYLDMEIDWIPGMKRIRLRDLPEFILATKQNYFAFEFLFETAQLADKVSHMIIHTFEELEASLVSEIKSIFPNVYTIGPLQLLLNKITQKETNNDSYSLWKEEPECVEWLNSKEPNSVVYVNFGSLAVMSLQDLVEFGWGLVNSNHYFLWIIRANLIDGKPAVMPQELKEAMNEKGFVGSWCSQEEVLNHPAVGGFLTHCGWGSIIESLSAGVPMLGWPSIGDQRANCRQMCKEWEVGMEIGKNVKRDEVEKLVRMLMEGLEGERMRKKALEWKKSATLATCCNGSSSLDVEKLANEIKKLSRN
B2: SEQ ID NO: 54: UGT enzyme (Ziziphus jujube) (protein, listed as Ziziphus jujuba)
chain: MMERQRSIKVLMFPWLAHGHISPFLELAKRLTDRNFQIYFCSTPVNLTSVKPKLSQKYSSSIKLVELHLPSLPDLPPHYHTTNGLALNLIPTLKKAFDMSSSSFSTILSTIKPDLLIYDFLQPWAPQLASCMNIPAVNFLSAGASMVSFVLHSIKYNGDDHDDEFLTTELHLSDSMEAKFAEMTESSPDEHIDRAVTCLERSNSLILIKSFRELEGKYLDYLSLSFAKKVVPIGPLVAQDTNPEDDSMDIINWLDKKEKSSTVFVSFGSEYYLTNEEMEEIAYGLELSKVNFIWVVRFPLGQKMAVEEALPKGFLERVGEKGMVVEDWAPQMKILGHSSIGGFVSHCGWSSLMESLKLGVPIIAMPMQLDQPINAKLVERSGVGLEVKRDKNGRIEREYLAKVIREIVVEKARQDIEKKAREMSNIITEKGEEEIDNVVEELAKLCGM
B3: SEQ ID NO: 72: HvUGT B1 (Hordeum vulgare subsp. Vulgare) (protein)
chain: MAQAESERMRVVMFPWLAHGHINPYLELAKRLIASASGDHHLDVVVHLVSTPANLAPLAHHQTDRLRLVELHLPSLPDLPPALHTTKGLPARLMPVLKRACDLAAPRFGALLDELCPDILVYDFIQPWAPLEAEARGVPAFHFATCGAAATAFFIHCLKTDRPPSAFPFESISLGGVDEDAKYTALVTVREDSTALVAERDRLPLSLERSSGFVAVKSSADIERKYMEYLSQLLGKEIIPTGPLLVDSGGSEEQRDGGRIMRWLDGEEPGSVVFVSFGSEYFMSEHQMAQMARGLELSGVPFLWVVRFPNAEDDARGAARSMPPGFEPELGLVVEGWAPQRRILSHPSCGAFLTHCGWSSVLESMAAGVPMVALPLHIDQPLNANLAVELGAAAARVKQERFGEFTAEEVARAVRAAVKGKEGEAARRRARELQEVVARNNGNDGQIATLLQRMARLCGKDQAVPN
modifications: Hordeum vulgare
B4: SEQ ID NO: 13: Synthetic UGT enzyme (MbUGT1,2.2) (protein)
chain: MATKGSSGMSLAERFWLTLSRSSLVVGRSCVEFEPETVPLLSTLRGKPITFLGLMPPLHEGRREDGEDATVRWLDAQPAKSVVYVALGSEVPLGVEKVHELALGLELAGTRFLWALRKPTGVSDADLLPAGFEERTRGRGVVATRWVPQMSILAHAAVGAFLTHCGWNSTIEGLMFGHPLIMLPIFGDQGPNARLIEAKNAGLQVARNDGDGSFDREGVAAAIRAVAVEEESSKVFQAKAKKLQEIVADMACHERYIDGFIQQLRSYKDDSGYSSSYAAAAGMHVVICPWLAFGHLLPCLDLAQRLASRGHRVSFVSTPRNISRLPPVRPALAPLVAFVALPLPRVEGLPDGAESTNDVPHDRPDMVELHRRAFDGLAAPFSEFLGTACADWVIVDVFHHWAAAAALEHKVPCAMMLLGSAEMIASIADERLEHAETESPAAAGQGRPAAAPTFEVARMKLIR
B5: SEQ ID NO: 71: AtUGT73C3 (Arabidopsis thaliana) (protein, listed as Arabidopsis thaliana)
chain: MATEKTHQFHPSLHFVLFPFMAQGHMIPMIDIARLLAQRGVTITIVTTPHNAARFKNVLNRAIESGLAINILHVKFPYQEFGLPEGKENIDSLDSTELMVPFFKAVNLLEDPVMKLMEEMKPRPSCLISDWCLPYTSIIAKNFNIPKIVFHGMGCFNLLCMHVLRRNLEILENVKSDEEYFLVPSFPDRVEFTKLQLPVKANASGDWKEIMDEMVKAEYTSYGVIVNTFQELEPPYVKDYKEAMDGKVWSIGPVSLCNKAGADKAERGSKAAIDQDECLQWLDSKEEGSVLYVCLGSICNLPLSQLKELGLGLEESRRSFIWVIRGSEKYKELFEWMLESGFEERIKERGLLIKGWAPQVLILSHPSVGGFLTHCGWNSTLEGITSGIPLITWPLFGDQFCNQKLVVQVLKAGVSAGVEEVMKWGEEDKIGVLVDKEGVKKAVEELMGDSDDAKERRRRVKELGELAHKAVEKGGSSHSNITLLLQDIMQLAQFKN
B6: SEQ ID NO: 33: SgUGT720-269-1 (Siraitia grosvenorii) (protein)
chain: MEDRNAMDMSRIKYRPQPLRPASMVQPRVLLFPFPALGHVKPFLSLAELLSDAGIDVVFLSTEYNHRRISNTEALASRFPTLHFETIPDGLPPNESRALADGPLYFSMREGTKPRFRQLIQSLNDGRWPITCIITDIMLSSPIEVAEEFGIPVIAFCPCSARYLSIHFFIPKLVEEGQIPYADDDPIGEIQGVPLFEGLLRRNHLPGSWSDKSADISFSHGLINQTLAAGRASALILNTFDELEAPFLTHLSSIFNKIYTIGPLHALSKSRLGDSSSSASALSGFWKEDRACMSWLDCQPPRSVVFVSFGSTMKMKADELREFWYGLVSSGKPFLCVLRSDVVSGGEAAELIEQMAEEEGAGGKLGMVVEWAAQEKVLSHPAVGGFLTHCGWNSTVESIAAGVPMMCWPILGDQPSNATWIDRVWKIGVERNNREWDRLTVEKMVRALMEGQKRVEIQRSMEKLSKLANEKVVRGINLHPTISLKKDTPTTSEHPRHEFENMRGMNYEMLVGNAIKSPTLTKK

Experiments:
[1] = Kasai et al. 1989; cited from earlier work
Mog. IA = assay: bioconversion of Mog. IA into Mog. IIE; type: cell-based, E. coli; conditions: 96-well plates, 37° C., 48 hours; FIG. 18A
Protocol: (§1) IE (FIG. 18B) into Mog. IIE. In the experiment, engineered E. coli chassis strains expressing UGT enzymes, SEQ ID NO: 84, SEQ ID NO: 71, or SEQ ID NO: 33 were incubated in fermentation media containing Mog. IA (FIG. 18A) or Mog. IE (FIG. 18B) in 96-well plates at 37° C. Product formation was examined after 48 hours. Products were measured on LC-MS/MS with authentic standards. The values of Mog. IIE levels in excess of the empty vector control were calculated. […] IE into Mog. IIE.

mogrol [2] = assay: primary glycosylation at C3 and C24 hydroxyls of mogrol by cells expressing UGT enzymes; type: cell-based, E. coli; conditions: mogrol fed; 37° C., 48 hrs; LCMS/MS
Protocol: Specifically, mogrol was fed to cells expressing various UGT enzymes. Reactions were incubated at 37° C. for 48 hrs. Products were quantified by LCMS/MS with authentic standards of each compound.

Mog. IE = assay: bioconversion of Mog. IE into Mog. IIE; type: cell-based, E. coli; conditions: 96-well plates, 37° C., 48 hours; FIG. 18B
Protocol: as §1

Mog. IIE or Mog. IE = assay: branched glycosylation reactions by cells expressing UGT enzymes; type: cell-based, E. coli; conditions: Mog. IIE or Mog. IE fed; 37° C., 48 hr; LC-MS/MS
Protocol: Mog. IIE or Mog. IE was fed to cells expressing various UGT enzymes. Reactions were incubated at 37° C. for 48 hr. Products were quantified by LC-MS/MS with authentic standards of each compound. “Indirect” evidence means that consumption of substrate was observed.

Mog. II-E = assay: production of Mog.III or siamenoside from Mog. II-E; type: cell-based, E. coli; conditions: 37° C., 48 hr; FIG. 19
Protocol: II-E. In the experiment, engineered E. coli strains expressing UGT enzymes SEQ ID NO: 72, SEQ ID NO: 54 or SEQ ID NO: 13 were grown in fermentation media containing Mog. II-E at 37° C. for 48 hr. Products were quantified by LCMS/MS with authentic standards of each compound. […] IIE to Mog.III.

mogrol [3] = assay: bioconversion of mogrol into mogroside intermediates; type: cell-based, E. coli; conditions: 96-well plates, 48 hours, in excess of empty vector control; FIG. 17A
Protocol: The engineered bacterial strains described herein can be used for the glycosylation of a variety of substrates, including but not limited to terpenoid glycosides. In some aspects, the invention identifies UGT enzymes that are active on the mogrol or mogroside scaffolds. FIGS. 17A and B show the bioconversion of mogrol into mogroside intermediates. Engineered E. coli strains (chassis strain) expressing UGT enzymes were incubated in 96-well plates with mogrol. Product formation was examined after 48 hours. Reported values are those in excess of the empty vector control. Products were measured on LC-MS/MS with authentic standards. […] IE and/or Mog. IIE formed.

Row | Molecule | sweetening capacity, times that of sucrose [1] | bioconversion of Mog.IA into Mog.IIE (Mog. IA) | C3 O-Glucosylation (mogrol [2]) | C24 O-Glucosylation (mogrol [2]) | bioconversion of Mog. IE into Mog. IIE (Mog. IE) | C3 1-2 (Mog. IIE or Mog. IE) | C3 1-6 (Mog. IIE or Mog. IE) | C24 1-2 (Mog. IIE or Mog. IE) | C24 1-6 (Mog. IIE or Mog. IE) | bioconversion of Mog. IIE to Mog.III (Mog. II-E) | production of siamenoside from Mog. II-E (Mog. II-E) | product formation from mogrol (mogrol [3])
1 | C[C@H](CC[C@@H](O[C@@H]1O[C@H](CO[C@@H]2O[C@H](CO)[C@@H](O)[C@H](O)[C@H]2O)[C@@H](O)[C@H](O)[C@H]1O[C@@H]1O[C@H](CO)[C@@H](O)[C@H](O)[C@H]1O)C(C)(C)O)[C@H]1CC[C@@]2(C)[C@@H]3CC=C4[C@@H](CC[C@H](O[C@@H]5O[C@H](CO[C@@H]6O[C@H](CO)[C@@H](O)[C@H](O)[C@H]6O)[C@@H](O)[C@H](O)[C@H]5O)C4(C)C)[C@]3(C)[C@H](O)C[C@]12C [mogroside V] | ~ 250 times |  |  |  |  |  |  |  |  |  |  | 
2 | B1 |  | able to catalyze bioconversion of Mog.IA into Mog.IIE | Yes | Yes | able to catalyze the bioconversion of Mog. IE into Mog. IIE |  |  |  |  |  |  | 
3 | B2 |  |  |  |  |  | No | Yes | No | Yes | able to catalyze bioconversion of Mog. IIE to Mog.III |  | 
4 | B3 |  |  |  |  |  | No | Yes | No | No | able to catalyze bioconversion of Mog. IIE to Mog.III |  | 
5 | B4 |  |  |  |  |  | Yes | Yes | Yes | Yes | able to catalyze bioconversion of Mog. IIE to Mog.III | production of substantial amounts of siamenoside | 
6 | B5 |  | able to catalyze bioconversion of Mog.IA into Mog.IIE | Yes | Yes | able to catalyze the bioconversion of Mog. IE into Mog. IIE |  |  |  |  |  |  | largely produced Mog.IA from mogrol
7 | B6 |  |  | Yes | Yes | able to catalyze the bioconversion of Mog. IE into Mog. IIE |  |  |  |  |  |  | largely produced Mog.IA from mogrol
